Measurements reported in PMC314469, “Protein Interaction Networks by Proteome Peptide Scanning” (PLoS Biology, 2004).

T1: Rvs167 SH3 (RV167_YEAST), P39743
T1 chain: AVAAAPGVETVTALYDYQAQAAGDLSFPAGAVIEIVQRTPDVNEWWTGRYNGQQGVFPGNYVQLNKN

T2: Yhr016c SH3 (YSC84_YEAST), P32793
T2 chain: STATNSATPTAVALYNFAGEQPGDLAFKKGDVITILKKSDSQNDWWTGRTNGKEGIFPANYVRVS

T3: Yfr024 SH3 (LSB3_YEAST), P43603
T3 chain: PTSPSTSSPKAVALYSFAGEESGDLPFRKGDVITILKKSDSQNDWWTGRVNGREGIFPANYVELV

T4: Boi1 SH3 (BOI1_YEAST), P38041
T4 chain: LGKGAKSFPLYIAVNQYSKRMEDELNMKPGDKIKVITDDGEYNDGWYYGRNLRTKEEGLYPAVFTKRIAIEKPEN

T5: Myo5 SH3 (MYO5_YEAST), Q04439
T5 chain: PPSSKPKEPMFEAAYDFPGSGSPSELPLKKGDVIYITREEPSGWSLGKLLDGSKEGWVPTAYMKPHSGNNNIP

T6: Boi2 SH3 (BOI2_YEAST), P39969
T6 chain: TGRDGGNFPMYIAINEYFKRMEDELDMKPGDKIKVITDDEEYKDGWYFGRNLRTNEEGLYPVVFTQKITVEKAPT


Tests used:
Test in all cases: SPOT array
[1] = biological target: T1, Rvs167 SH3 (RV167_YEAST), P39743
[2] = biological target: T2, Yhr016c SH3 (YSC84_YEAST), P32793
[3] = biological target: Sho1 SH3 (SHO1_YEAST), P40073
Sho1 SH3 (SHO1_YEAST), P40073, sequence (P40073 295-366): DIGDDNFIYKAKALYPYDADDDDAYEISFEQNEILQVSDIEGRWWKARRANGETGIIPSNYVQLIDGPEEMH

[4] = biological target: T3, Yfr024 SH3 (LSB3_YEAST), P43603
[5] = biological target: T4, Boi1 SH3 (BOI1_YEAST), P38041
[6] = biological target: T5, Myo5 SH3 (MYO5_YEAST), Q04439
[7] = biological target: T6, Boi2 SH3 (BOI2_YEAST), P39969

| Binder | normalised SPOT signal, Boehringer light units (BLU); mean over the file's lines of this peptide [1] | normalised SPOT signal, Boehringer light units (BLU); mean over the file's lines of this peptide [2] | normalised SPOT signal, Boehringer light units (BLU); mean over the file's lines of this peptide [3] | normalised SPOT signal, Boehringer light units (BLU); mean over the file's lines of this peptide [4] | normalised SPOT signal, Boehringer light units (BLU); mean over the file's lines of this peptide [5] | normalised SPOT signal, Boehringer light units (BLU); mean over the file's lines of this peptide [6] | normalised SPOT signal, Boehringer light units (BLU); mean over the file's lines of this peptide [7] |
| --- | --- | --- | --- | --- | --- | --- | --- |
| EKESRHYPIKPPSP [YMR147W 121-134] | 72.2 | 39.7 | 44.6 | 31.6 | 64.2 | 180 | 20.2 |
| EKLIKITPDTPFGF [YOR340C 102-115] | 46.5 | 34.6 | 36.8 | 61.9 | 0 | 206 | 19.1 |
| EKNARGIPQAPFIE [YGR078C 9-22] | 33.4 | 42.5 | 24.1 | 202 | 48.1 | 136 | 10.5 |
| EKVFRGDPEHPAIS [YJR010W 130-143] | 66.3 | 67.9 | 75.6 | 48.5 | 17400 | 90 | 15.1 |
| EKYGKDQPESPVPE [YMR285C 368-381] | 41.8 | 1.6 | 66.3 | 0 | 62.1 | 143 | 12.1 |
| ELDIKQGPVRPFIV [YDL095W 18-31] | 24.5 | 17.8 | 27.9 | 41.1 | 86.2 | 161 | 33.2 |
| ELDTKTIPELPFSM [YJR092W 117-130] | 98.8 | 12.8 | 44.1 | 27.4 | -0 | 53.2 | 24.8 |
| ELQIRYKPTPPLKK [YPL074W 331-344] | 188 | 42.2 | 76.5 | 930 | 87.9 | 171 | 17.3 |
| ENENKKLPPAPTVF [YKR103W 236-249] | 22 | 24.6 | 3520 | 16.2 | 50.9 | 67.7 | 12.9 |
| ERDGRGVPLGPRNH [YGL023C 22-35] | 35.7 | 50.2 | 38 | 643 | 370 | 121 | 25 |
| ETGVRYGPEFPLST [YNL277W 122-135] | 11.9 | 40.6 | 23.1 | 7.2 | 93.9 | 96.2 | 23.4 |
| ETKKKWQPLPPEPL [YOR042W 368-381] | 28.5 | 2.5 | 436 | 30.2 | 116 | 256 | 13.2 |
| ETSLRVLPIAPKIF [YDL231C 393-406] | 766 | 55.1 | 2880 | 399 | 426 | 548 | 47.6 |
| ETTTRETPLPPIPA [YPL207W 797-810] | 167 | 71.1 | 1020 | 108 | 85 | 178 | 43.2 |
| EVENKLRPDLPVKN [YFR030W 637-650] | 44.1 | 14.9 | 39.1 | 1360 | 31.6 | 40.7 | 24.9 |
| EVLRKYIPGEPEFL [YDR023W 429-442] | 6.9 | 10.4 | 47.5 | 0 | 46.4 | 169 | 0 |
